Source: patent US8183228B2, “Anticoagulant antithrombotic dual inhibitors comprising a biotin label” (MSD OSS B.V. Netherlands, priority 2005, dated 2012)
Counter-ions that a name gives are not always drawn. Like-named read-outs stand apart in the source and are kept apart here.

Legend:
[1] = system: guinea pig platelet aggregation; assay: In vitro neutralisation of inhibition of guinea pig platelet aggregation by avidin; format: cell-based; conditions: avidin added to ADP-induced guinea pig platelet aggregation assay
Protocol: 2.1 In Vitro Neutralization of the Antithrombotic Activity A. In Vitro Neutralisation of Inhibition of Platelet Aggregation (Pre-Incubation of Compound with Avidin)
As performed in above described protocol for ADP-induced platelet aggregation. […] Before inducing the guinea pig platelet aggregation by adding ADP, compound and avidin (from egg white, Sigma) in different concentrations were pre-incubated for 2 minutes at room temperature (FIGS. 1 and 2).
B. In Vitro Neutralisation of Inhibition of Platelet Aggregation
(After Delayed Addition of Avidin)
(§1) As performed in above described protocol for ADP-induced platelet aggregation. […] After 7 minutes the detection of platelet aggregation was interrupted and avidin (from egg white, Sigma) in different concentrations was added at t=9 min. Within 1 minute the detection of the platelet aggregation was resumed (FIGS. 3 and 4).

[2] = Pharmacokinetics after s.c. administration in rat (plasma anti-Xa activity); format: in vivo; conditions: for Tmax / AUC(0-inf) / Cmax / half-life: male, Wistar, plasma, sc; for half-life: read-out: T½ eli (converted); for pharmacokinetic behavior in rats (comparison): within the variability of the experiment
Protocol: The pharmacokinetic properties of compounds 10, 12, 17 and 27 were studied in male Wistar rats of 300-400 gr. The rats were anaesthetized by inhalation of a mixture of O2N2O/isoflurane, after which the right jugular vein was cannulated. The next day rats were treated s.c. with doses of 100 or 500 nmol/kg. After s.c. administration, blood was sampled at several time intervals. Then the blood was centrifuged after which the plasma was siphoned off and stored at −20° C. until use. The concentration of the tested compound was measured amidolytically with S2222 (Chromogenix, Chromogenics Ltd, Molndal, Sweden) by determination of the anti-Xa activity based on the method of Teien and Lie in the obtained plasma samples against a calibration curve which was made of the stock solution of the tested compound itself. (Teien A N, Lie M. Evaluation of an amidolytic heparin assay method increased sensitivity by adding purified antithrombin III. Thromb. Res. 1977, 10: 399-410). The concentration in the samples was expressed in nmol/mL and the kinetic parameters were calculated with the noncompartment model of WinNonlin. (FIGS. 6 and 7)

[3] = Pharmacokinetics - neutralization experiment with avidin i.v. in rat; format: in vivo; conditions: for level at time molar at 24 h: plasma, sc, before avidin, read-out: Plasma level T = 24 h; for level at time molar at 24 h / Plasma level T = 26 h / % reduction of plasma concentration: s.c. 500 nmol/kg; for Plasma level T = 26 h: 2 hours after avidin 10 mg/kg i.v. at t = 24 h; for % reduction of plasma concentration: within 2 hours after avidin 10 mg/kg i.v. at t = 24 h, sodium salt
Protocol: 3.2 Pharmacokinetics—Neutralization Experiment:
Rats were treated with compound 10, 12, or 27 at a dose of 100 nmol/kg s.c. At t=1 h, a blood sample was taken and 10 mg/kg of Avidin (from egg white, Sigma) was administered i.v. to the rats treated with compound 10 or 12. Blood was sampled at 0.5-1-3-6 and 23 hours subsequently. The blood was treated as described in the pharmacokinetic experiment and the concentration of the samples was determined by measuring the (residual) anti-Xa activity. (FIG. 8)
In a separate experiment compound 10, 17 or 26 was administered at a dose of 500 nmol/kg s.c. after which blood was collected at 24 hours. Then 10 mg/kg avidin was administered intravenously and blood was collected at 25 and 26 hours. (FIG. 9)

[4] = system: human platelet aggregation; assay: In vitro neutralisation of inhibition of human platelet aggregation by avidin; format: cell-based; conditions: avidin added 9 minutes after ADP-induced aggregation, human platelets
Protocol: as §1
In FIG. 5, the effect of avidin on the inhibition of human platelet aggregation by compound 17 is shown (addition of avidin 9 minutes after ADP-induced platelet aggregation).

[5] = Bleeding in guinea pigs and its stop by avidin; format: in vivo, guinea pig; conditions: guinea pigs
[6] = s.c. 100 nmol/kg, avidin 10 mg/kg i.v.

| SMILES | effect of avidin on inhibition of guinea pig platelet aggregation (neutralisation of anti-GPIIbIIIa activity) [1] | Tmax ([2]; 100 nmol/kg) [h] | AUC(0-inf) ([2]; 100 nmol/kg, mean ± s.e.m.) [µM·h] | Cmax ([2]; 100 nmol/kg, mean ± s.e.m.) [µM] | half-life ([2]; 100 nmol/kg, mean ± s.e.m.) [h] | pharmacokinetic behavior in rats (comparison) [2] | neutralization by avidin of (residual) anti-Xa activity / pharmacokinetic behavior [3, 6] | level at time molar at 24 h [3] [µM] | Plasma level T = 26 h [3] [µM] | % reduction of plasma concentration [3] [%] | also measured |
| --- | --- | --- | --- | --- | --- | --- | --- | --- | --- | --- | --- |
| CO[C@H]1O[C@H](COS(=O)(=O)O)[C@@H](O[C@@H]2O[C@@H](C(=O)O)[C@@H](O[C@H]3O[C@H](COS(=O)(=O)O)[C@@H](O[C@@H]4O[C@H](C(=O)O)[C@@H](O[C@H]5O[C@H](COS(=O)(=O)O)[C@@H](OCCOCCOCCOCCNC(=O)COCCOCCOCCOCCNC(=O)c6cccc(S(=O)(=O)N[C@@H](Cc7ccc(OCCCCC8CCNCC8)cc7)C(=O)O)c6)[C@H](OC)[C@H]5OC)[C@H](OC)[C@H]4OC)[C@H](OS(=O)(=O)O)[C@H]3OS(=O)(=O)O)[C@H](OC)[C@H]2OC)[C@H](OS(=O)(=O)O)[C@H]1OS(=O)(=O)O [Compound 12, sodium salt, reference compound] | cannot be restored | 1.3 | 16.8 ± 0.5 | 1.26 ± 0.02 | 9.8 ± 0.4 | same pharmacokinetic behavior | not affected |  |  |  |  |
| CO[C@H]1O[C@H](COS(=O)(=O)O)[C@@H](O[C@@H]2O[C@@H](C(=O)O)[C@@H](O[C@H]3O[C@H](COS(=O)(=O)O)[C@@H](O[C@@H]4O[C@H](C(=O)O)[C@@H](O[C@H]5O[C@H](COS(=O)(=O)O)[C@@H](OCCOCCOCCOCCNC(=O)[C@H](CCCCNC(=O)C[C@H](NC(=O)CCCC[C@@H]6SC[C@@H]7NC(=O)N[C@@H]76)C(=O)O)NC(=O)COCCOCCOCCOCCNC(=O)c6cccc(S(=O)(=O)N[C@@H](Cc7ccc(OCCCCC8CCNCC8)cc7)C(=O)O)c6)[C@H](OC)[C@H]5OC)[C@H](OC)[C@H]4OC)[C@H](OS(=O)(=O)O)[C@H]3OS(=O)(=O)O)[C@H](OC)[C@H]2OC)[C@H](OS(=O)(=O)O)[C@H]1OS(=O)(=O)O [Compound 17, sodium salt] |  | 1.7 | 15.9 ± 0.9 | 1.24 ± 0.01 | 10.4 ± 0.5 | same pharmacokinetic behavior |  | 0.666 ± 0.093 | 0.112 ± 0.035 | 83 | effect of avidin on inhibition of human platelet aggregation [4]: full restoration of human platelet aggregation; bleeding induced after administration [5]: dose-dependent bleeding; effect of avidin on induced bleeding ([5]; avidin i.v. 10 mg/kg): stopped immediately |
| CO[C@H]1O[C@H](COS(=O)(=O)O)[C@@H](O[C@@H]2O[C@@H](C(=O)O)[C@@H](O[C@H]3O[C@H](COS(=O)(=O)O)[C@@H](O[C@@H]4O[C@H](C(=O)O)[C@@H](O[C@H]5O[C@H](COS(=O)(=O)O)[C@@H](OCCOCCOCCOCCNC(=O)[C@H](CCCCNC(=O)CCCC[C@@H]6SC[C@@H]7NC(=O)N[C@@H]76)NC(=O)COCCOCCOCCOCCNC(=O)c6cccc(S(=O)(=O)N[C@@H](Cc7ccc(OCCCCC8CCNCC8)cc7)C(=O)O)c6)[C@H](OC)[C@H]5OC)[C@H](OC)[C@H]4OC)[C@H](OS(=O)(=O)O)[C@H]3OS(=O)(=O)O)[C@H](OC)[C@H]2OC)[C@H](OS(=O)(=O)O)[C@H]1OS(=O)(=O)O [Compound 10, sodium salt] | immediate restoration of platelet aggregation |  |  |  |  | same pharmacokinetic behavior | can be neutralized | 0.733 ± 0.033 | 0.185 ± 0.045 | 75 | Cl ([2]; 500 nmol/kg, mean ± s.e.m.): 0.11 ± 0.005 mL/min/kg; Vz ([2]; 500 nmol/kg, mean ± s.e.m.): 0.103 ± 0.009 L/kg; Tmax ([2]; 500 nmol/kg): 1.3 h; AUC(0-inf) ([2]; 500 nmol/kg, mean ± s.e.m.): 76.2 ± 2.8 µM·h; Cmax ([2]; 500 nmol/kg, mean ± s.e.m.): 4.5 ± 0.4 µM; half-life ([2]; 500 nmol/kg, mean ± s.e.m.): 10.7 ± 1.5 h; Cl in comparison to compound 12 [3, 6]: strongly increased; overall AUCinf in comparison to compound 12 [3, 6]: strongly reduced; overall T1/2 eli in comparison to compound 12 [3, 6]: strongly reduced |
